Series [1] has as its system C[C@@H](O)[C@H]1C(=O)N2C(C(=O)O)=C(SCCN=CN)C[C@H]12. Put plainly: purified protein. The following applies: 50 mM HEPES, pH 7.5, 150 mM NaCl, 10 μM ZnCl2, 37 °C.
The subject of series [2] is CC(=O)OCC1=C(C(=O)O)N2C(=O)[C@@H](NC(=O)Cc3cccs3)[C@H]2SC1. Put plainly: purified protein. As to conditions: 50 mM HEPES, pH 7.5, 150 mM NaCl, 10 μM ZnCl2, 37 °C.
Series [3] deals with C[C@@H](O)[C@H]1C(=O)N2C(C(=O)O)=C(S[C@@H]3CN[C@H](C(=O)N(C)C)C3)[C@H](C)[C@H]12. The series is described as follows: purified protein. The following applies: 50 mM HEPES, pH 7.5, 150 mM NaCl, 10 μM ZnCl2, 37 °C.
Another series has as its target SPS-1 (Sediminispirochaeta smaragdinae, UniProt E1R245). The following applies: read-out: SPS-1 / Km; 50 mM HEPES, pH 7.5, 150 mM NaCl, 10 μM ZnCl2, 37 °C.

This is an account of results in PMC6314204 (Biochemistry, 2018).

By kcat is commonly meant the number of substrate molecules converted per active site and unit of time at saturation. By kcat/Km is commonly meant the second-order rate constant that governs catalysis at low substrate concentration.

SPS-1, sequence (E1R245 32-276 limits assumed): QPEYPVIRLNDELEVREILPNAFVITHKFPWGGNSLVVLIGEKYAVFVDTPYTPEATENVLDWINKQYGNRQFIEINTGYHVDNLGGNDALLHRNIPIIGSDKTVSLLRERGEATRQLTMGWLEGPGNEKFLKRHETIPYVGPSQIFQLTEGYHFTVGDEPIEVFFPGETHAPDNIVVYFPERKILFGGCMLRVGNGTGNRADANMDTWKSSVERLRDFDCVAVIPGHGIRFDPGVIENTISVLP

For the substance “SPS-1 (Sediminispirochaeta smaragdinae DSM 11293)”, the Km turned out to be 290 ± 50 µM in series [1], 110 ± 20 µM in series [2] and 170 ± 30 µM in series [3]. The turnover number (kcat) in series [1] came to 470 ± 60 s⁻¹; in series [2] it was 3.1 ± 0.1 s⁻¹; in series [3] it was 520 ± 50 s⁻¹. The catalytic efficiency (kcat/Km) was found to be 1.63e+06 M⁻¹ s⁻¹ in series [1], 27000 M⁻¹ s⁻¹ in series [2] and 3e+06 M⁻¹ s⁻¹ in series [3].

In the case of chromacef, the Km on SPS-1 amounted to 120 ± 9 µM.
